{"source": "patent US7629135B2", "about": "“Toll-like receptor agonists and antagonists and methods of use thereof” (The Board of Trustees of the University of Illinois, priority 2006, dated 2009)", "molecules": {"B1": {"name": "SAA: Recombinant human SAA purchased from PeproTech; major acute-phase protein of 104 amino acids (protein, UniProt P0DJI8 19-122, looked up)", "Serum amyloid A-1 protein": "RSFFSFLGEAFDGARDMWRAYSDMREANYIGSDKYFHARGNYDAAKRGPGGAWAAEVITDARENIQRFFGHGAEDSLADQAANEWGRSGKDPNHFRPAGLPEKY"}}, "key": {"[1]": {"tested_on": "Human peripheral blood monocytes (PBMC)", "assay": "SAA-induced G-CSF secretion in human PBMC (ELISA)", "format": "cell-based", "settings": "SAA 1 μM", "method": "SAA induces G-CSF expression in monocytes and macrophages: To determine whether SAA plays a role in neutrophilia, the ability of SAA to stimulate G-CSF expression was investigated. Human peripheral blood monocytes (PBMC) were incubated with SAA, and the concentration of secreted G-CSF in the culture medium was determined at various time points after stimulation. The concentration of SAA used in this experiment (1 μM) was well within its physiological range (0.08 μM to 80 μM). […] Since subsequent studies used mice for measurement of G-CSF secretion and neutrophilia, SAA-induced G-CSF expression in mouse bone marrow derived macrophages (BMDM) was determined, of which 98% were F4/80^+ CD14^+ based on flow cytometry analysis. […] The basal level of G-CSF remained stable at approximately 42 pg/ml/10^6 cells over the entire course of incubation.\nCell preparation and culture: Human peripheral blood monocytes were prepared from fresh, heparinized venous blood by Ficoll-Hypaque density-gradient centrifugation. […]\nMeasurement of G-CSF expression: To measure the secreted G-CSF from human monocytes and mouse macrophages in vitro, cells were placed in serum-free DMEM medium and stimulated with the indicated ligands. […] Real-time quantitative PCR was performed on a ABI PRISM 7000 Sequence Detection System (Applied Biosystems) as described previously (He et al., 2006). […]"}, "[2]": {"tested_on": "RelA/p65 binding to the CK-1 site of the G-CSF promoter", "assay": "Chromatin immunoprecipitation (ChIP) assay in RAW264.7 cells", "format": "cell-based, mouse", "settings": "SAA 1 μM or TNFα 50 ng/ml", "method": "To investigate the mechanism for SAA-induced G-CSF production, the level of G-CSF transcript in SAA-stimulated BMDM was determined. […] The induction of G-CSF transcript peaked at 4 h after SAA stimulation. Since transcription of the G-CSF gene involves NF-κB binding to the RelA/p65 consensus element in the CK-1 site of the G-CSF promoter (Dunn et al., 1994; Hareng and Hartung, 2002), the role of NF-κB in SAA-stimulated G-CSF expression was determined. […] Using oligonucleotide probe based on the sequence of the CK-1 site (−161 to −152 in the G-CSF promoter), a protein •DNA complex (FIG. 2C) was identified. […] Inclusion of a RelA/p65 antibody blocking peptide in the assay abrogated the immunoprecipitation (FIG. 2D).\nChIP assay: Reagents were obtained from Upstate Biotechnology, and ChIP assay was performed as per manufacturers specifications with minor modifications. Briefly, a total of 1×10^7 RAW264.7 cells were harvested and resuspended in a serum-free DMEM medium absence or presence of 1 μM SAA, or 50 ng/ml of TNFα, and incubated for 30 or 60 min at 37° C. Following stimulation, cells were crosslinked and then washed and resuspended in SDS-lysis buffer, and were sonicated (4 times for 10 s each, with a setting at ‘4’ on a Fisher Sonic 60 dismembrenator). […] The PCR products were analyzed on a 2.5% agarose gel."}}}
{"molecule": "B1", "values": [{"measurement": "secreted G-CSF", "setting": "[1]; after 4 h of stimulation", "result": "2,546 pg/ml/10^6 cells"}, {"measurement": "secreted G-CSF", "setting": "[1]; end of 24 h incubation", "result": "7,340 pg/ml/10^6 cells"}, {"measurement": "pull-down of CK-1 DNA fragment by anti-RelA/p65 antibody", "setting": "[2]", "result": "able to pull-down the CK-1 DNA fragment"}]}
